Source: patent US20250346676A1

Key:
[1] = biological target: human recombinant CD64 (R&D Systems) (human) (UniProt P12314); assay: SPR (Biacore T200); construct captured on Protein A, soluble CD64 as analyte
[2] = biological target: FcγRIIIaV158 (UniProt P08637); assay: TR-FRET competition with labeled competitor antibody on cells bearing the receptor
[3] = biological target: FcγRIIaH131 (human) (UniProt P12318); assay: as above
[4] = biological target: FcγRIIb (UniProt P31994); assay: as above
Chain of FcγRIIb (P31994 43-310 limits assumed): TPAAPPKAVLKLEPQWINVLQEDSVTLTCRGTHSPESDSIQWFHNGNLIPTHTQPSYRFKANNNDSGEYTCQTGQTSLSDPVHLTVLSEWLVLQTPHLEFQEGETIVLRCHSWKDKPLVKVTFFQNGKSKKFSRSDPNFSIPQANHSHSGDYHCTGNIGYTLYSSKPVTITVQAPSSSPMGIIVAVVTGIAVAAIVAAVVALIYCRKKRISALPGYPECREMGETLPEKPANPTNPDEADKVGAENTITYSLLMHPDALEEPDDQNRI

Chain of FcγRIIIaV158 (P08637 17-254 F176V limits assumed): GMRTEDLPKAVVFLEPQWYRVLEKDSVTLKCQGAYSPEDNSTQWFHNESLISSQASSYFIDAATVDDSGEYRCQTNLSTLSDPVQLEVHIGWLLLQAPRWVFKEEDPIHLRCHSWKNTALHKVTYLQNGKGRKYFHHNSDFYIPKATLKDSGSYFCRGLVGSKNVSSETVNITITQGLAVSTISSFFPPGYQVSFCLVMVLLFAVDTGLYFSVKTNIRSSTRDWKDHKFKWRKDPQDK
Chain of FcγRIIaH131 (human) (P12318 34-317): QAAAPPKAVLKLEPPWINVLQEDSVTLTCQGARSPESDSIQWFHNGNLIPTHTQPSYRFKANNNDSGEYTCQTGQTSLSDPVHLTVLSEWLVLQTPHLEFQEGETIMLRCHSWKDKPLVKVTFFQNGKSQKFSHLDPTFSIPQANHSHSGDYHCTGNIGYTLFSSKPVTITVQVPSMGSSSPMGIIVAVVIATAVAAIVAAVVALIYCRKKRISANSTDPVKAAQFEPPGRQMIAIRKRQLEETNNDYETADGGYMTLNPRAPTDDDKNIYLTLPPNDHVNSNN
Chain of human recombinant CD64 (R&D Systems) (human) (P12314 16-288 limits assumed): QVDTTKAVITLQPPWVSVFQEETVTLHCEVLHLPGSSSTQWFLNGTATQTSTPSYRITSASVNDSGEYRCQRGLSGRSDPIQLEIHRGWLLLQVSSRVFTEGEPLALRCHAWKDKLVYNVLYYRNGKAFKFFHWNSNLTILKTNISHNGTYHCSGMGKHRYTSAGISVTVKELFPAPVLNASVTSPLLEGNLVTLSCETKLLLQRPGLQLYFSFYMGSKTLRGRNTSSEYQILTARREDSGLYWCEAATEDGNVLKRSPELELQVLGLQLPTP

anti-CD20 monoclonal antibody (CDRs from Gazyva (obinutuzumab))
CD64 Valency by SPR [1]: 1.5 | IC50 [2]: 428 nM | IC50 [3]: 1270 nM | IC50 [4]: 3.29 µM
